Reference: paper PMC11696079 (Nature Communications, 2025)
Several values for one entry are separate records, joined by “and”; a condition that tells them apart may be missing. Equal values may be shown once.

Target: recombinant wild-type PKM2 (WT) (UniProt P14618 1-531)
Assay: SPR

Sequence of recombinant wild-type PKM2 (WT) (P14618 whole entry): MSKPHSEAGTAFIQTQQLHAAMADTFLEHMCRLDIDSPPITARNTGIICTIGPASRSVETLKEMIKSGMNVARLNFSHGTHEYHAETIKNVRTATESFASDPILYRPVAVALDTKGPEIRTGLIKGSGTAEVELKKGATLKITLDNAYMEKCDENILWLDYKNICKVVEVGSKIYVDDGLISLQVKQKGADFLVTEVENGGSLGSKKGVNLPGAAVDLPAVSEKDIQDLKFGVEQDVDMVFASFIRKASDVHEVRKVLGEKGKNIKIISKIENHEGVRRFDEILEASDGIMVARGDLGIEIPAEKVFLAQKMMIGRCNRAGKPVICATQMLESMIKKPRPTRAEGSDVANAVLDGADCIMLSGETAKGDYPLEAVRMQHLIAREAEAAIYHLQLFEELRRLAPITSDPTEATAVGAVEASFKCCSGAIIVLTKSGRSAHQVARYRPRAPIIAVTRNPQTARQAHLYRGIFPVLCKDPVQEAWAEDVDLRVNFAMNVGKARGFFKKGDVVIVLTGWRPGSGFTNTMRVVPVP

- Kd: 382 nM and 322 nM
B1: recombinant wild-type ALDOA (WT) (enzyme)
chain: PYQYPALTPEQKKELSDIAHRIVAPGKGILAADESTGSIAKRLQSIGTENTEENRRFYRQLLLTADDRVNPCIGGVILFHETLYQKADDGRPFPQVIKSKGGVVGIKVDKGVVPLAGTNGETTTQGLDGLSERCAQYKKDGADFAKWRCVLKIGEHTPSALAIMENANVLARYASICQQNGIVPIVEPEILPDGDHDLKRCQYVTEKVLAAVYKALSDHHIYLEGTLLKPNMVTPGHACTQKFSHEEIAMATVTALRRTVPPAVTGITFLSGGQSEEEASINLNAINKCPLLKPWALTFSYGRALQASALKAWGGKKENLKAAQEEYVKRALANSLACQGKYTPSGQAGAAASESLFVSNHAY
